Measured values from article PMC7596504, “Molecular mechanism of the MORC4 ATPase activation” (Nature Communications, 2020).

T1: MORC4 CW domain (Homo sapiens, UniProt Q8TE76)
T1 construct: The CW domain (aa 417–475) of MORC4 was cloned into a pGEX 6p-1 vector; GST (N, cleaved yes); made in house; host or cells: E. coli Rosetta2 (DE3) pLysS or BL21 (DE3) RIL
T1 sequence (Q8TE76 417-475): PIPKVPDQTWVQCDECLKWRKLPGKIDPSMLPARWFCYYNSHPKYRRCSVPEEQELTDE


Experiments:
MORC4 CW domain = molecular target: T1, MORC4 CW domain; test: 1H,15N HSQC NMR titration of MORC4 CW; format: binding
Procedure: NMR experiments were carried out at 298 K on a Varian INOVA 600 and 900 MHz spectrometers. His-tagged MORC4 ATPase (1–411) was expressed and purified as described above and used without cleavage of the tag. NMR samples contained 0.1 mM uniformly ^15N-labeled WT or mutated CW in 20 mM Tris-HCl (pH 7) buffer supplemented with 100 mM NaCl, 5 mM DTT, and 10% D2O. Binding was characterized by monitoring CSPs in the proteins induced by H3 peptides or the ATPase domain. For the CWKRR mutant, NMR experiments were performed in 20 mM Tris-HCl (pH 6.8) buffer supplemented with 150 mM NaCl, 2 mM DTT, and 10% D2O.

MORC4 = test: ATPase activity assay (EnzChek Phosphate Assay Kit); format: biochemical, human; design: Rate of ATP hydrolysis: unit not given here; conditions: for Rate of ATP hydrolysis: no DNA, no peptide
Procedure: To determine whether MORC4 is catalytically active, we produced the ATPase domain of human MORC4 and examined its ability to hydrolyze ATP in enzymatic assays (Fig. 1a–c). Following incubation of the ATPase domain with ATP, 2-amino-6-mercapto-7-methylpurine ribonucleoside and nucleoside phosphorylase, the release of inorganic phosphate generated by the hydrolysis of ATP to ADP was monitored by measuring an increase in absorbance at 360 nm.
The ATPase assays were performed using the EnzChek Phosphate Assay Kit (Invitrogen, item # E6646). The reactions were carried out on 1.0 µM of MORC4 His-ATPase or ATPaseCW (WT and mutants), in the presence and absence of 1 µM 601 DNA or 50 µM of unmodified H3 or H3K4me3 peptide (aa 1–12 of H3) in a buffer containing 50 mM Tris-HCl (pH 7.5), 150 mM NaCl, 1 mM MgCl2, 0.1 mM sodium azide, 200 µM MESG, and 1 U of PNP. In assay with the nucleosome, 0.5 µM of MORC4 ATPaseCW and 0.5 µM NCP167 (Activemotif) were used. The reaction was started by adding 2 mM ATP to the mixture at room temperature, and the release of inorganic phosphate was monitored by measuring the absorbance at 360 nm on a Nanodrop 2000c spectrophotometer (Thermo Scientific). In the presence of inorganic phosphate, produced by the hydrolysis of ATP to ADP, MESG is enzymatically converted to ribose 1-phosphate and […] by PNP, resulting in a shift in the wavelength absorbance from 330 nm for MESG to 360 nm for the product. The rate of ATP self-hydrolysis was measured in parallel. Error was calculated as the S.D. of at least three separate experiments (two in Fig. 4j).

NCP207 = test: Fluorescence polarization binding to NCP207
Procedure: Fluorescence polarization measurements were acquired with a Tecan infinite M1000Pro plate reader by exciting at 470 nm and measuring polarized emission at 519 nm with 5 nm excitation and emission bandwidths. The fluorescence polarization was calculated from the emission polarized parallel and perpendicular to the polarized excitation light. Fluorescence polarization measurements were carried out using increasing concentrations of MORC4 ATPaseCW, ATPase alone, or CW alone with 5 nM 207 bp Fluorescein-labeled NCPs in 15 mM Tris pH 7.5, 75 mM NaCl, 0.00625% Tween 20, and 5 mM dithiothreitol buffer in 30 µL reaction volumes. The samples were loaded into a Corning round bottom black polystyrene plate and incubated at room temperature for 10 min before fluorescence polarization measurements of the samples were taken. The data were then fit to a non-cooperative binding isotherm to determine S1/2 values. Errors represent a S.D. between the S1/2 values based on three runs.
(§1) Histone octamers unlabeled or labeled with Cy5 at H2AK119 were prepared as previously described. NCPs were reconstituted by combining octamer with 1.25× excess DNA and performing slow salt dialysis. Free DNA was then separated from fully reconstituted NCPs by sucrose gradient purification. NCPs for fluorescence polarization assays were reconstituted from unlabeled octamer and 207 bp DNA containing the 601 Widom sequence flanked with a 30 bp linker on either side and internally labeled with Fluorescein 27 bp in from the 5′ end. Cy3-Cy5 labeled NCPs for FRET assays were reconstituted with Cy5 labeled octamer plus either 147 bp 601 Widom DNA containing a LexA transcription factor binding site at bases 8–27[34], or 252 bp DNA containing the 601 Widom sequence with a 75 bp linker at the 3′ end, a 30 bp linker at the 5’ end, and a Gal4 transcription factor binding site at bases 8–26 in the 601 Widom sequence. The 147 bp LexA-binding DNA was labeled with Cy3 on the 5′ end, and the 252 bp Gal4-binding DNA was internally labeled with Cy3 34 bp in from the 5′ end.

NCP147 [1] = test: Fluorescence polarization binding to NCP147
NCP147 [2] = test: EMSA with NCP147; format: binding; conditions: 5 nM 147 bp fluorescein-labeled NCP, pH 7.5, 4 °C
Procedure: EMSAs were performed by mixing increasing amounts of MORC4 ATPase with 5 nM 147 bp fluorescein-labeled NCP in 25 mM Tris-HCl pH 7.5, 75 mM NaCl, 25 mM Tris-HCl pH 7.5, 0.005% Tween 20, and 10% glycerol buffer in a 12 μL reaction volume. Each sample was incubated at 4 °C for 5 min and then loaded onto a 5% native polyacrylamide gel. Electrophoresis was performed in 0.3× Tris-borate-EDTA (TBE) at 300 V for 90 min. Fluorescein fluorescence images were acquired with a Typhoon Phosphor Imager.

NCP147 [3] = test: FRET, LexA titration into Cy3-Cy5 labeled NCP147; format: binding; conditions: mean of n = 3
Procedure: as §1
LexA was expressed in E. coli, separated from genomic DNA and the proteome by polyethyleneimine precipitation, and salted out with ammonium sulfate. LexA was resuspended in buffer A (20 mM potassium phosphate pH 7, 0.1 mM EDTA, 10% glycerol, 1 mM DTT) + 200 mM NaCl and purified by a linear gradient to A + 800 mM NaCl over either a cellulose phosphate or HiTrap Heparin HP column. […]
Cy3-Cy5 NCP FRET efficiency measurements were carried out on a Horiba Scientific Fluoromax 4. […] LexA titrations were carried out in 20 mM Tris pH 7.5, 75 mM NaCl, 10% glycerol, 0.00625% Tween 20 buffer with 5 nM 147 bp Cy3-Cy5 NCPs mixed in 20 µL reaction volumes and allowed to incubate for 5 mins at 4 °C before FRET of the sample was measured. […] Gal4 (1–147) titrations were carried out in 10 mM Tris pH 8, 130 mM NaCl, 10% glycerol, 0.0075% Tween 20 buffer with 1 nM 252 bp Cy3-Cy5 nucleosomes mixed in 60 µL reaction volumes and allowed to incubate for 10 mins at room temperature before FRET of the sample was measured. […]

Molecule | interaction with CW by chemical shift perturbations (MORC4 CW domain; 15N-labeled WT CW 0.1 mM, pH 7, 100 mM NaCl, 298 K) | competition with H3 peptide for CW (MORC4 CW domain; titration into the CW:H3 complex) | catalytic (ATPase) activity of the protein (MORC4) | Rate of ATP hydrolysis (MORC4; 1.0 µM protein, 2 mM ATP, pH 7.5, room temperature, absorbance 360 nm, Fig. 1b,c, mean) | Rate of ATP hydrolysis (MORC4; Fig. 1b, replicate 4) | Rate of ATP hydrolysis (MORC4; Fig. 1b, replicate 5) | increase in interaction with NCP207 relative to NCP147 (NCP207; NCP207 vs NCP147) | S1/2 (NCP207; fluorescence polarization, 5 nM NCP207, pH 7.5, 75 mM NaCl, room temperature, 10 min, mean ± S.D. of n = 3) | decrease in binding to NCP147 compared to NCP207 (NCP147 [1]; NCP147 vs NCP207 (peer review file)) | S1/2 (NCP147 [1]; fluorescence polarization, pH 7.5, 75 mM NaCl, room temperature, 10 min, mean of n = 3) | binding to NCP147 in EMSA (NCP147 [2]) | S1/2 (NCP147 [3]; +1 μM MORC4 ATPaseCW) | S1/2 (NCP147 [3]; without MORC4, 5 nM NCP147, pH 7.5, 75 mM NaCl, 4 °C, 5 min)
ATPase: ATPase domain (aa 29–411) of human MORC4 (Q8TE76) (protein, UniProt Q8TE76 29-411, looked up, fragment) GIRLSTMSPRYLQSNSSSHTRPFSAIAELLDNAVDPDVSARTVFIDVEEVKNKSCLTFTDDGCGMTPHKLHRMLSFGFTDKVIKKSQCPIGVFGNGFKSGSMRLGKDALVFTKNGGTLTVGLLSQTYLECVQAQAVIVPIVPFNQQNKKMIITEDSLPSLEAILNYSIFNRENDLLAQFDAIPGKKGTRVLIWNIRRNKNGKSELDFDTDQYDILVSDFDTEEKMTGGVTSELPETEYSLRAFCGILYMKPRMKIFLRQKKVTTQMIAKSLANVEYDTYKPTFTNKQVRITFGFSCKNSNQFGIMMYHNNRLIKSFEKVGCQVKPTRGEGVGVIGVIECNFLKPAYNKQDFEYTKEYRLTINALAQKLNAYWKEKTSQDNFET | formation of the large ATPase:CW complex | disruption of the CW:H3 complex and formation of the complex between CW and the ATPase domain | possesses little ATP hydrolyzing activity | 0.08049 | 0.02158 | 0.01439 | ~ 5 fold | 0.50 ± 0.08 µM | 5 fold | 2.3 µM | bound to NCP147 |  | 
LexA: transcription factor LexA, expressed in E. coli (protein, UniProt P0A7C2 1-202, looked up) LexA repressor: MKALTARQQEVFDLIRDHISQTGMPPTRAEIAQRLGFRSPNAAEEHLKALARKGVIEIVSGASRGIRLLQEEEEGLPLVGRVAAGEPLLAQQHIEGHYQVDPSLFKPNADFLLRVSGMSMKDIGIMDGDLLAVHKTQDVRNGQVVVARIDDEVTVKRLKKQGNKVELLPENSEFKPIVVDLRQQSFTIEGLAVGVIRNGDWL |  |  |  |  |  |  |  |  |  |  |  | 2.4 ± 0.4 µM | 0.9 ± 0.2 µM
